Test results as given in patent publication US20190359992.

How the values were obtained:
Assay in all cases: cell_activity
[1] = tested on: GmUbi3_T01.1 Left TALEN (synthetic construct); settings: pair with P2; soybean protoplasts, raw 0.72%; full site SEQ 25
[2] = tested on: GmUbi3_T03.1 Right TALEN (synthetic construct); settings: pair with P5; soybean protoplasts, raw 4.98%; full site SEQ 27
[3] = tested on: GmUbi3_T02.1 Left TALEN (synthetic construct); settings: pair with P4; soybean protoplasts, raw 1.70%; full site SEQ 26
[4] = tested on: GmUbi3_T02.1 Right TALEN (synthetic construct); settings: pair with P3; soybean protoplasts, raw 1.70%; full site SEQ 26
[5] = tested on: GmUbi3_T01.1 Right TALEN (synthetic construct); settings: pair with P1; soybean protoplasts, raw 0.72%; full site SEQ 25
[6] = tested on: GmUbi3_T03.1 Left TALEN (synthetic construct); settings: pair with P6; soybean protoplasts, raw 4.98%; full site SEQ 27

Work on “TGTCCTCCGTCTCCGT (double strand) [GmUbi3_T1 left half-site]” yielded an activity (% normalized mutation frequency) [1] of 0.91.

With “GCCTTGAGCTAGTTGT (double strand) [GmUbi3_T3 right half-site]” the activity (% normalized mutation frequency) [2] was 8.12.

With “CTTCCATGCTTGTCAT (double strand) [GmUbi3_T2 left half-site]” the activity (% normalized mutation frequency) [3] was 2.76.

“CCTTCACACAACTCAT (double strand) [GmUbi3_T2 right half-site]” showed an activity (% normalized mutation frequency) [4] of 2.76.

Sequence “CCAACATTACACAACT (double strand) [GmUbi3_T1 right half-site]” has an activity (% normalized mutation frequency) [5] of 0.91.

With “TCATCAACTGTGGAGT (double strand) [GmUbi3_T3 left half-site]” the activity (% normalized mutation frequency) [6] was 8.12.
